Reference: patent publication US20210269501A1

target: NKG2D ligands (NKG2DLs) on human TNBC cell lines; experiment: cell-based or functional assay

Substance	cytotoxicity (overnight luminescence based assay, MDA-MB-231 fLuc) [%]
NKG2D_41BB_CD3Zeta CAR (receptor)	> 60
NKG2D_CD3Zeta CAR (receptor)	> 60
NKG2D_CD27_CD3Zeta CAR (receptor)	> 60
